Test results reported in patent publication EP4818206A1.

Key:
[1] = biological target: human CD84 (NCBI Accession No. NP_001171808.1), on cells (human) (UniProt Q9UIB8); assay: flow cytometry on HEK293T-hCD84 cells
[2] = biological target: cynomolgus CD84 (NCBI Accession No. XM_005541244.3), on HEK293T cells (cynomolgus); assay: flow cytometry on HEK293T-Cyno-CD84 cells

UniProt Q9UIB8, sequence (Q9UIB8 22-345): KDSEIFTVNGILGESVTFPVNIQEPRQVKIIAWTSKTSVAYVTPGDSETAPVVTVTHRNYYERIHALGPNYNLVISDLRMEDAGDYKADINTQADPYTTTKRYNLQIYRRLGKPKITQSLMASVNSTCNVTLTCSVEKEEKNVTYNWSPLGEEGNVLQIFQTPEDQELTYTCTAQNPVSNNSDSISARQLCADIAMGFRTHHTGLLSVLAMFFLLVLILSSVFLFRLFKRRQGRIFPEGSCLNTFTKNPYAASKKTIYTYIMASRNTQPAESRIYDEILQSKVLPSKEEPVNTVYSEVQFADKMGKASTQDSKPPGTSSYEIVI

EC50 [1]: 2.09 nM
MFI (max) [1]: 134000 MFI
EC50 [2]: 16.6 nM
MFI (max) [2]: 57700 MFI
Substance: CD84.1.21 (Biolegend; Cat. No. 326002) (antibody)
